In PMC8911618, “Application of β-Glucosidase in a Biphasic System for the Efficient Conversion of Polydatin to Resveratrol” (Molecules, 2022) one finds Km data, which are given here for one substance.

In the data set the test system is T1, O=[N+]([O-])c1ccc(O[C@@H]2O[C@H](CO)[C@@H](O)[C@H](O)[C@H]2O)cc1.
T1 construct: signal peptide removed, starts at residue 29 with added Met; C-terminal His6 (reverse primer), pQE30, E. coli JM109, Ni-NTA
In words: purified protein. Particulars: McIlvaine buffer, pH 5.5, 45 °C, 0.1–20 mM pNPG. Type of data set: biochemical, Sphingomonas sp. ATCC 31555.

Usually Km stands for the substrate concentration at which the rate is half of its maximum.

On to SpBGL1 (Sphingomonas sp. ATCC 31555), for which the Michaelis-Menten constant (Km) was 13.09 ± 3.43 mM.
